Test results reported in patent publication EP1403367A1, “METHOD OF TESTING DRUG FOR TREATING OR PREVENTING DISEASES SUCH AS HYPERLIPEMIA” (Sankyo Company Limited, priority 2001, dated 2002).
Each block holds one compound with its values, some of them ahead of it.

Columns and labels:
[1] = Concentration of neutral fat in blood after bezafibrate in feed; assay type: in vivo, Zucker fatty rats; conditions: 0.3% in F2 powder feed for seven days; compared to the control group
From the text: (§1) For seven days, the antilipemic bezafibrate (manufactured by Sigma) mixed with F2 powder feed (manufactured by Funabashi Noujou) at 0.3% of concentration was administrated to two Zucker fatty rats (purchased from Nihon Charles River) of age 11 weeks.
(§2) To the two rats in the control group only F2 powder feed was given. After collecting blood samples from each of the rats under both conditions, the liver thereof was extracted, put in liquid nitrogen immediately to be frozen rapidly, and kept at -80 °C. 5 ml of TRIzol reagent (manufactured by Gibco BRL) were added to 0.1 g of the liver tissue obtained, and it was homogenized on ice using an ultra high-speed homogenizer (Polytoron, manufactured by ckinematica) (at dial 10 for 2 minutes). After incubation for 5 minutes at a room temperature, 1 ml of chloroform was added and mixed vigorously for 15 seconds.

[2] = tested on: rat "angiopoietin-related protein 3" gene; assay: TaqMan PCR quantification of liver angiopoietin-related protein 3 gene expression after bezafibrate in feed; assay type: in vivo, Zucker fatty rats; conditions: 0.3% in F2 powder feed for seven days, compared to the control group, corrected with 18S ribosome
From the text: as §1
as §2, with “seconds. […]” for “seconds.”
A single stranded cDNA was produced according to the following procedures. […] After completion of the reaction, 29 µl of ribonuclease-free purified water was added to each of the samples, and diluted with ribonuclease-free purified water a further 5 times for use in the following quantification. The single-stranded cDNA solution for creation of a calibration-curve was prepared by producing a 5-times serial dilution with ribonuclease-free purified water from the solution for quantification derived from one control sample. […]

[3] = molecular target: lipoprotein lipase (LPL) originated from a rat fat cell (rat) (UniProt Q06000); assay: cell-based or functional assay
[4] = molecular target: lipoprotein lipase (LPL) in mouse plasma after administering heparin intravenously (mouse) (UniProt P11152); assay: cell-based or functional assay
[5] = molecular target: hepatic triacylglycerol lipase (HTGL) in mouse plasma after administering heparin intravenously (mouse) (UniProt P27656); assay: cell-based or functional assay
Sequence of UniProt P27656 (P27656 22-510 limits assumed): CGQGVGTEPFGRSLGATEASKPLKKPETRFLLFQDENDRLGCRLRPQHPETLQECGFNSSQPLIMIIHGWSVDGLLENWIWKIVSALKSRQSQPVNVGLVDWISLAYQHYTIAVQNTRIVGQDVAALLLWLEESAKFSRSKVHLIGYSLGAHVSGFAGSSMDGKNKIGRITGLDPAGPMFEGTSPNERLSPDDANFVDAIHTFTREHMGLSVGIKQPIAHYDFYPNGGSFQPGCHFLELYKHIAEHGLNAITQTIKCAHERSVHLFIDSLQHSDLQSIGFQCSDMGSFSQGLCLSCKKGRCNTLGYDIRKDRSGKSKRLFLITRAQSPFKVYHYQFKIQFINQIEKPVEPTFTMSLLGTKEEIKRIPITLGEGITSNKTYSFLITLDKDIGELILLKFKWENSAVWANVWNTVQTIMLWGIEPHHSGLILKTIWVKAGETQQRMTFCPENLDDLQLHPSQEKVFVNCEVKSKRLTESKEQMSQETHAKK

Sequence of UniProt Q06000 (Q06000 28-474 limits assumed): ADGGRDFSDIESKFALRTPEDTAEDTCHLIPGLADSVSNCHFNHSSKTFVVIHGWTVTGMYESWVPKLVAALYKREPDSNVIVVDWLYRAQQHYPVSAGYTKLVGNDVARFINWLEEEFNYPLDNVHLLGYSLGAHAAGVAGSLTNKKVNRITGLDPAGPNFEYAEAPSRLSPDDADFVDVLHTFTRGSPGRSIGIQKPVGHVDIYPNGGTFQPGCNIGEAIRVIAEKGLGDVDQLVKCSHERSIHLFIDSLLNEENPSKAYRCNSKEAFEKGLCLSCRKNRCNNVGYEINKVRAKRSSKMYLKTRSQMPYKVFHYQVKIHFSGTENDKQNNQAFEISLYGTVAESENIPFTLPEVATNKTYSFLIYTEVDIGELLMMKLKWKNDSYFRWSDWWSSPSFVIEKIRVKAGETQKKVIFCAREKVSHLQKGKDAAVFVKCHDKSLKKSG
Sequence of UniProt P11152 (P11152 28-474 limits assumed): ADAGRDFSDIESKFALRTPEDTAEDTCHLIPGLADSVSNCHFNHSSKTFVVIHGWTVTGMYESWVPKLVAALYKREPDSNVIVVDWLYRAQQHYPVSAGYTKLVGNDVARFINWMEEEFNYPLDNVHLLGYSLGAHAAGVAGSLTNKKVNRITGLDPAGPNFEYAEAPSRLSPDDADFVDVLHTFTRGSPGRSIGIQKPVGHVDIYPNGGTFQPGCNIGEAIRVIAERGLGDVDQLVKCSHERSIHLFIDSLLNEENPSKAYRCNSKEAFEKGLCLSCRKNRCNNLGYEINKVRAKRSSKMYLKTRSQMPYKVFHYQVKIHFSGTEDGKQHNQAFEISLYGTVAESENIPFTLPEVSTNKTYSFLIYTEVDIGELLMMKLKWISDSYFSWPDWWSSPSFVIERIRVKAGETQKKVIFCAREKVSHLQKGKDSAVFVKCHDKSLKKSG

Compound: CC(C)(Oc1ccc(CCNC(=O)c2ccc(Cl)cc2)cc1)C(=O)O [bezafibrate]
concentration of neutral fat in blood reduced [1]: 50% | level of expression of a rat "angiopoietin-related protein 3" gene decreased [2]: 73%

relative value of LPL activity (%) at 1 µg/ml GST-ARP4Full (GST 10 µg/ml = 100 %) [3]: 67% | relative value of LPL activity (%) at 2.5 µg/ml GST-ARP4Full (GST 10 µg/ml = 100 %) [3]: 30% | relative value of LPL activity (%) at 5 µg/ml GST-ARP4Full (GST 10 µg/ml = 100 %) [3]: 16% | relative value of LPL activity (%) at 10 µg/ml GST-ARP4Full (GST 10 µg/ml = 100 %) [3]: 5%
Compound: GST-ARP4Full (glutathione-S-transferase connected to the amino terminus of amino acid numbers 26-406 of SEQ ID No. 16, angiopoietin related protein 4) (from UniProt P08515 1-218)

LPL activity (%) at 1 µg/ml GST-ARP4N (GST 10 µg/ml = 100 %) [3]: 74% | LPL activity (%) at 2.5 µg/ml GST-ARP4N (GST 10 µg/ml = 100 %) [3]: 61% | LPL activity (%) at 5 µg/ml GST-ARP4N (GST 10 µg/ml = 100 %) [3]: 34% | LPL activity (%) at 10 µg/ml GST-ARP4N (GST 10 µg/ml = 100 %) [3]: 16%
Compound: GST-ARP4N (glutathione-S-transferase connected to the amino terminus of amino acid numbers 26-143 of SEQ ID No. 16, angiopoietin related protein 4) (from UniProt P08515 1-218)

relative value of LPL activity (%) at 0 µg/ml KhAP5 CC/His [3]: 100% | relative value of LPL activity (%) at 1 µg/ml KhAP5 CC/His [3]: 27% | relative value of LPL activity (%) at 2.5 µg/ml KhAP5 CC/His [3]: 21% | relative value of LPL activity (%) at 5 µg/ml KhAP5 CC/His [3]: 14% | relative value of LPL activity (%) at 10 µg/ml KhAP5 CC/His [3]: 11%
Compound: KhAP5 CC/His (N terminal 207 amino acid partial protein of angiopoietin-related protein 3 with a histidine tag inserted after residue 20) (ligand)

relative value of LPL activity (%) at 0 µg/ml polypeptide [3]: 100% | relative value of LPL activity (%) at 1 µg/ml polypeptide [3]: 84% | relative value of LPL activity (%) at 2.5 µg/ml polypeptide [3]: 64% | relative value of LPL activity (%) at 5 µg/ml polypeptide [3]: 52% | relative value of LPL activity (%) at 10 µg/ml polypeptide [3]: 29% | relative value of LPL activity (%) at 0 µg/ml polypeptide [4]: 100% | relative value of LPL activity (%) at 1 µg/ml polypeptide [4]: 93% | relative value of LPL activity (%) at 2.5 µg/ml polypeptide [4]: 82% | relative value of LPL activity (%) at 5 µg/ml polypeptide [4]: 70% | relative value of LPL activity (%) at 10 µg/ml polypeptide [4]: 49% | relative value of HTGL activity (%) at 0 µg/ml polypeptide [5]: 100% | relative value of HTGL activity (%) at 1 µg/ml polypeptide [5]: 109% | relative value of HTGL activity (%) at 2.5 µg/ml polypeptide [5]: 94% | relative value of HTGL activity (%) at 5 µg/ml polypeptide [5]: 80% | relative value of HTGL activity (%) at 10 µg/ml polypeptide [5]: 64%
Compound: human angiopoietin-related protein 3 (polypeptide consisting of amino acid numbers 17-460 of SEQ ID No. 4) (ligand)
